“And” between values parts separate entries of the source, which are not always exact repeats. Equal values may be shown once. Ends that are not written are not given here.
How the values were obtained:
Assay in all cases: G assay
[1] = biological target: GST-PSD95 PDZ domain 3 (human)
[2] = biological target: GST-PSD95 PDZ domain 1 (human)
[3] = biological target: GST-NOS1 (nNOS) PDZ domain (human)
[4] = biological target: GST-PSD95 PDZ domain 2 (human)

Binder	Average OD [1]	Average OD [2]	Average OD [3]	Average OD [4]
KAGYRAPRSYPKSNSSKEYV (modifications not checked) [claudin 7 PL peptide]	0.92 OD and 0.86 OD	1.28 OD and 1.08 OD	1.01 OD and 0.93 OD	–
RELVDRGEVRQFTLRHWLKV (modifications not checked) [Dopamine transporter PL peptide]	–	–	1.38 OD and 1.27 OD and 1.1 OD	–
QDFRRAFRRILARPWTQTAW (modifications not checked) [a-2B Adrenergic receptor PL peptide]	3.74 OD and 2.98 OD	1.59 OD and 0.87 OD	3.54 OD and 2.52 OD	–
SSKSKSSEESQTFFGLYKL (modifications not checked) [Fas Ligand PL peptide]	1.07 OD	1.23 OD	1.99 OD and 1.93 OD	–
SPQPDSTDNDDYDDISAA (modifications not checked) [CD6 PL peptide]	–	–	0.59 OD	–
KDITSDSENSNFRNEIQSLV (modifications not checked)	–	–	–	1.35 OD
KTMPAAMYRLLTAQEQPVYI (modifications not checked) [MINT-1 PL peptide]	–	–	4 OD and 3.76 OD	–
VDPNSPAAKKKYVSYNNLVI (modifications not checked) [GLUR7 (metabotropic glutamate receptor) PL peptide]	0.82 OD	0.85 OD	0.75 OD and 0.64 OD and 0.59 OD	–
DFRPSFKHILFRRARRGFRQ (modifications not checked) [alpha-2C Adrenergic receptor PL peptide]	1.72 OD and 1.19 OD	2.05 OD and 1.26 OD	3.02 OD and 2.09 OD	–
PYSELNYETSHYPASPDSWV (modifications not checked) [catenin-delta 2 PL peptide]	–	1.18 OD	2.1 OD	–
TGSALQAWRHTSRQATESTV (modifications not checked)	0.78 OD	3.86 OD	–	–
SSPDSSYQGKGFVMSRAMYV (modifications not checked) [Nectin 2 PL peptide]	0.91 OD	1.01 OD	0.54 OD	–
VPSDNIDSQGRNASINDSLL (modifications not checked) [beta-2 Adrenergic Receptor PL peptide]	–	–	0.85 OD	–
AWDDSARAAGGQGLHVTAL (modifications not checked) [LPAP PL peptide]	–	–	0.77 OD	–
LNSSSNRRVYKKMPSIESAV (modifications not checked)	–	–	–	3.37 OD and 2.67 OD and 2.29 OD
ELLQFCRTPNPALKNGQYWV (modifications not checked) [CSPG4 (chondroitin sulfae proteoglycan 4, melanoma-associated) PL peptide]	–	–	2.43 OD and 1.27 OD	–
LGYSIPSRSGASGLDKRDYV (modifications not checked) [claudin 9 PL peptide]	–	0.82 OD	0.51 OD	–
SYPTPRPYPKPAPSSGKDYV (modifications not checked) [claudin 1 PL peptide]	0.85 OD	0.95 OD	0.9 OD	–
PIPAGGCTFSGIFPTLTSPL (modifications not checked) [KIAA 1481 PL peptide]	–	–	0.71 OD	–
HDFRRAFKKILARGDRKRIV (modifications not checked) [alpha-2A Adrenergic receptor PL peptide]	–	–	0.96 OD and 0.73 OD	–

Binder	Average OD [1]	Average OD [2]	Average OD [3]	Average OD [4]
ALVLIAFCIIRRRPSAYQAL (modifications not checked) [CD68 PL peptide]	–	–	0.67 OD	–
SSSQSLESDGSYQKPSYIL (modifications not checked) [CD62E PL peptide]	–	–	0.5 OD	–
QISPGGLEPPSEKHFRETEV (modifications not checked) [20 C-terminal amino acids from TAX]	–	–	–	2.39 OD
LAVLAYSITLVMLWSIWQYA (modifications not checked) [Serotonin receptor 3a PL peptide]	–	–	1.02 OD	–
LNSCSNRRVYKKMPSIESDV (modifications not checked) [NMDAR2A C-terminal 20mer peptide]	–	4.07 OD and 4 OD	–	–
RIAYSLLGLKDQVNTVGIPI (modifications not checked) [ephrin A2 PL peptide]	–	–	1.83 OD and 4 OD	–
DGGARTEDEVQSYPSKHDYV (modifications not checked)	1.05 OD	1.25 OD	–	–
SFTSILTCHQRRTQRKETVA (modifications not checked) [GluR5-2 (rat) PL peptide]	4 OD	3.12 OD and 2.26 OD	0.65 OD	–
YGRKKRRQRRRKLSSIESDV (not fully specified) [[…] (Tat transporter fused to the C-terminal 9 amino acids of NMDA Receptor 2B)]	–	3.87 OD and 2.13 OD and 1.4 OD	–	4.06 OD and 3.53 OD and 3.1 OD
GGDLGTRRGSAHFSSLESEV (modifications not checked) [NMDAR2D C-terminal 20mer peptide]	–	0.86 OD and 0.77 OD	–	3.11 OD and 2.22 OD and 1.31 OD
PGQPPKVKSEFNSYSLTGYV (modifications not checked) [claudin 2 PL peptide]	0.79 OD	1.03 OD and 0.85 OD	0.69 OD	–
TTNNNPNSAVNIKKIFTDV (modifications not checked) [KV1.3 PL peptide]	1 OD	2.28 OD and 1.12 OD	0.67 OD	1.06 OD
GRWTGRAMSAWKPTRRETEV (modifications not checked) [HPV E6 #35 (cysteine-free) PL peptide]	4 OD	4 OD and 3.08 OD	0.74 OD and 0.62 OD	2.82 OD
VHKVRNKFKAKCSLCRLYII (modifications not checked) [HPV-E6 #63 PL peptide]	4 OD	4 OD and 2.67 OD	2.55 OD and 4 OD	4 OD and 2.62 OD
HHLVAQRDIRQFQLQHWLAI (modifications not checked) [noradrenaline transporter PL peptide]	0.82 OD and 0.7 OD	–	1.08 OD	–
HSCCNRARQERLQRRRETQV (modifications not checked) [HPV-E6 #18 PL peptide]	–	–	2.14 OD	–
RSGATIPLVGQDIIDLQTEV (modifications not checked)	–	–	–	1.23 OD
VGTLLLERVIFPSVKIATLV (modifications not checked) [AdenoE4 typ9 PL peptide]	–	–	3.64 OD and 2.73 OD and 4 OD	–
TQGFPGPATWRRISSLESEV (modifications not checked) [NMDA Glutamate Receptor 2C (cysteine-free) C-terminal 20mer peptide]	1.46 OD and 1.17 OD	–	0.49 OD	3.56 OD and 2.89 OD and 2.07 OD

From patent publication US20110039758A1
